Target: human CCR8 (human) (UniProt P51685)
Experiment: cell-based or functional assay

IC50 of CCL1 blocking (Ca2+ influx, CHO/hCCR8.Gna15 cells): 17.6 nM
induction fold at plateau (about 40 nM antibody), mFcgRIV Jurkat reporter with CHO/hCCR8: 13 fold
induction fold, mFcgRIV Jurkat NFAT-luciferase reporter with CHO/hCCR8, at about 1 nM antibody: > 12 fold
B1: murine anti-human CCR8 mAb 433H (BD Biosciences) (antibody, from another filing, mouse IgG2a, V domains shown)
VH: EVQLVETGGGLVQPKGSLRLSCAASGFPFNTFAMNWVRQAPGKGLEWLARIRSKSNNYATYYADSVKDRFTISRDDSRRMLYLLMNNVKFEDTAIYYCVRGKENNYGYAMDYWGQGTSVTVSS
VL: DIVMTQAAPSVPVTPGESVSISCRSSQSLLHSNGNTYLYWFLQRPGQSPQLLIYRMSNLASGVPDRFSGSGSGTAFTLRISRVEAEDVGVYYCMQHLEYPFTFGIGTKLELKR

From patent US20250297019A1
